Laboratory results published in patent US20130084295A1.
Positions count from the first letter of the chain named. Blank lines part the entries; values can stand above or below the binder they belong to.

Assays:
[1] = target: IFN-α (subtype not stated; antigen of the ELISA, BIAcore and Kinexa assays of Example 2) (human); assay: ELISA, IFN-α coated at 0.1 µg/ml, F(ab) at 10 µg/ml; SD 0.06, N 3
[2] = target: IFN-α (subtype not stated; antigen of the ELISA, BIAcore and Kinexa assays of Example 2) (human); assay: Kinexa
[3] = target: IFN-α (subtype not stated; antigen of the ELISA, BIAcore and Kinexa assays of Example 2) (human); assay: ELISA, IFN-α coated at 0.1 µg/ml, F(ab) at 10 µg/ml; SD 0.32, N 3
[4] = target: IFN-α (subtype not stated; antigen of the ELISA, BIAcore and Kinexa assays of Example 2) (human); assay: ELISA, IFN-α coated at 0.1 µg/ml, F(ab) at 10 µg/ml; SD 0.05, N 3
[5] = target: IFN-α (subtype not stated; antigen of the ELISA, BIAcore and Kinexa assays of Example 2) (human); assay: ELISA, IFN-α coated at 0.1 µg/ml, F(ab) at 10 µg/ml; SD 0.00, N 3
[6] = target: leukocyte interferon (Sigma Product No. 1-2396): heterogeneous collection of IFN-α subtypes produced by activated leukocytes; assay: cell-based or functional assay
[7] = target: IFN-α (subtype not stated; antigen of the ELISA, BIAcore and Kinexa assays of Example 2) (human); assay: Kinexa; remark: listed apart in the source

fold reduction of affinity against the parental murine 9F3 antibody [2]: 2 fold
B2: humanized recombinant anti-IFN-α monoclonal antibody V13IgG2 (antibody, V domains shown)
VH: EVQLVESGGGLVQPGGSLRLSCATSGYTFTEYIIHWVRQAPGKGLEWVASINPDYDITNYNQRFKGRFTISLDKSKRTAYLQMNSLRAEDTAVYYCASWISDFFDYWGQGTLVTVSS
VL: DIQMTQSPSSLSASVGDRVTITCRASQSVSTSSYSYMHWYQQKPGKAPKVLISYASNLESGVPSRFSGSGSGTDFTLTISSLQPEDFATYYCQHSWGIPRTFGQGTKVEIKR

OD450 nm at 10 µg/ml (mean) [3]: 0.868 OD450 nm
B3: humanized 9F3 F(ab) version F-15 (Fab, V domains shown)
VH: B2 VH with K74N
VL: DIQMTQSPSSLSASVGDRVTITCRASQSVSTSSYSYMHWYQQKPGKAPKVLISYASNLESGVPSRFSGSGSGTDFTLTISSLQPEDFATYYCQHSWGIPRTFGQGTKVEIK

neutralization of anti-viral activity (EMC virus, A549 cells; 10 µg/ml mAb) [6]: > 95% | Kd [7]: 1.5 pM
B7: murine anti-human IFN-α monoclonal antibody 9F3 (antibody, IgG2, V domains shown)
VL: DIVLTQSPASLAVSLGQRATISCRASQSVSTSSYSYMHWYQQKPGQPPKVLISYASNLESGVPARFSGSGSGTDFTLNIHPVEEGDTATYFCQHSWGIPRTFGAGTKLELRRAV
VH: EVQLQQSGPELVKPGASVKISCKTSGYTFTEYIIHWVKQGHGRSLEWIGSINPDYDITNYNQRFKGKATLTLDKSSRTAYLELRSLTSEDSAVYYCASWISDFFDYWGQGTTLMVSAAS

The next lines start with the binder.

B1: humanized 9F3 F(ab) version F-11 (Fab, V domains shown)
VH: B2 VH with K76S, R77N
VL: B3 VL with V50L, S53Y
OD450 nm at 10 µg/ml (mean) [1]: 0.642 OD450 nm

B4: humanized 9F3 F(ab) version F-12 (Fab, V domains shown)
VH: B2 VH
VL: B3 VL with V50L, S53Y
OD450 nm at 10 µg/ml (mean) [4]: 0.912 OD450 nm

B5: humanized 9F3 F(ab) version F-14 (Fab, V domains shown)
VH: B2 VH with L72R
VL: B3 VL
OD450 nm at 10 µg/ml (mean) [1]: 0.472 OD450 nm

B6: humanized 9F3 F(ab) version F-1 (Fab, V domains shown)
VH: B2 VH with T24A, L72R, K74N, R77N, A79L, S98R
VL: B3 VL with V50L, S53Y
OD450 nm at 10 µg/ml (mean) [5]: 0.06 OD450 nm
